Values quoted from earlier work in article PMC10347550, “Cyclic Ruthenium-Peptide Conjugates as Integrin-Targeting Phototherapeutic Prodrugs for the Treatment of Brain Tumors” (Journal of the American Chemical Society, 2023).

Target: fibrinogen (Homo sapiens) (UniProt P02671)
Sequence (P02671 36-866, chain 1 of 3): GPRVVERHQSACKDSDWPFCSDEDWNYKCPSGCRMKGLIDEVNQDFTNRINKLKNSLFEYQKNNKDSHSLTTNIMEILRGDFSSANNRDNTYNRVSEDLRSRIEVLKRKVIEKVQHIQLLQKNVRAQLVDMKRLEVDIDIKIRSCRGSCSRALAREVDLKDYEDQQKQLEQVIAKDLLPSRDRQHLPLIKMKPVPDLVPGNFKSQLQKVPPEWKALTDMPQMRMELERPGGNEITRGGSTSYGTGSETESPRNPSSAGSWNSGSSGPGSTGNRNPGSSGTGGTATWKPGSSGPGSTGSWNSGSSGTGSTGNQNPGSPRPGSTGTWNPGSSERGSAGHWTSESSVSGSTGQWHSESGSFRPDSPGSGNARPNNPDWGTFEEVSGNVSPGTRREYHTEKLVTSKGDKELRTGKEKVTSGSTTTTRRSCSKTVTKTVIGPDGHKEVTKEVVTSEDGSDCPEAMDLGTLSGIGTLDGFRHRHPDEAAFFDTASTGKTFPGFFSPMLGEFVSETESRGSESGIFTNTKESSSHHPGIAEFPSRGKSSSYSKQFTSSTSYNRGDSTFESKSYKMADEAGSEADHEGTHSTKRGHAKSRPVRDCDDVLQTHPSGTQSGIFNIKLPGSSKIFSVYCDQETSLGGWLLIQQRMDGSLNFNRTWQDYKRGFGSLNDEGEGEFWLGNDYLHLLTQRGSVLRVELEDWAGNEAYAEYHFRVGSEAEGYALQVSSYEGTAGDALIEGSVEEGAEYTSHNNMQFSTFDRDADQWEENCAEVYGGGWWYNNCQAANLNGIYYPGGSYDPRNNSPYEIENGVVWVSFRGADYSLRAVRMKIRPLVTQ
Sequence (P02675 45-491, chain 2 of 3, further chain): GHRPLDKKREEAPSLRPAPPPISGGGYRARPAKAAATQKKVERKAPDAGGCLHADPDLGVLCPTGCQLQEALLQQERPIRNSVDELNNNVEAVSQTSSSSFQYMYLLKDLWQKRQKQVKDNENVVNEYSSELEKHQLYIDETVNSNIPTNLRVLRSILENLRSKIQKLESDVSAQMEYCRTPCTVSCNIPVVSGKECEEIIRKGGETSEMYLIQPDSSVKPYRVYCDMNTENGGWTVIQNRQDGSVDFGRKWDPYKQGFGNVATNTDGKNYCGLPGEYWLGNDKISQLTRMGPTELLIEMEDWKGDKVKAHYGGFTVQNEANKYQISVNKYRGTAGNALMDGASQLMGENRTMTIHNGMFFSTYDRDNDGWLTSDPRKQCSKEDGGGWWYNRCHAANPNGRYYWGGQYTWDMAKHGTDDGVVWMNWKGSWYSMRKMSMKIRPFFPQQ
Sequence (P02679 27-453, chain 3 of 3, further chain): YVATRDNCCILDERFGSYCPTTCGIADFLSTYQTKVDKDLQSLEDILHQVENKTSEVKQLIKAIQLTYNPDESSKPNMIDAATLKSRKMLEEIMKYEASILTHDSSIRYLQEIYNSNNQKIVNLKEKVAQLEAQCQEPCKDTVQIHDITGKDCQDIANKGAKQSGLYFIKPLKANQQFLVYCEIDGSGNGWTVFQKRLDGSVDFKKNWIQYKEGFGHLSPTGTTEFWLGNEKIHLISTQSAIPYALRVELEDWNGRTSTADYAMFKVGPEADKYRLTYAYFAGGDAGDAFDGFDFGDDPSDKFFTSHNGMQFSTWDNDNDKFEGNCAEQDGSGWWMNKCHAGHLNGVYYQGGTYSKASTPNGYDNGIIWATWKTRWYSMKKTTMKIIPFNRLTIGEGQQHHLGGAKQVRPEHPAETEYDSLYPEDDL

integrin αIIbβ3 (from UniProt P08514)
Kd: 30 nM
